Residue numbers refer to the chain shown, from its start.

For one assay, the target named is T1, Sur-N.
T1 construct: Specificity lane in the Western blots; also called Survivin-N (N-term); Sur N: 1-120
The assay can be described thus: Western blot of recombinant CPC domains, Fab as primary reagent, anti-human F(ab')2 IgG-HRP [panel B]. The protocol:
(§1) Recombinant CPC targets Survivin-N(N-term), Borealin-N(N-term), Borealin-C(C-term) and INCENP-N(N-term) domains were run on SDS-PAGE and transferred into PVDF membrane. […] The assay was developed by using a secondary anti-human-F(ab′)2 IgG-HRP reagent
(§2) Membranes were stained with Ponceau S dye to verify correct transfer of the proteins, were briefly washed with ddH2O and blocked with 4% skimmed milk in TBS-T containing 0.05% Tween20 for 30 min. at RT on the shaker. Blocking solution was discarded and membranes were incubated with Borealin Fabs as primary detection reagents at concentration 5-10 µg/ml, in blocking buffer at 4 C O/N on the shaker. Membranes were washed 3 times with TBS-T and incubated with secondary anti-human FAB′2 specific HRP-conjugated IgG (diluted 1:10,000 in blocking buffer) for 45 minutes at RT, shaking. Membranes were washed again 3× with TBS-T, developed with ECL chemiluminescent substrate and visualized with the Biorad imaging instrument (FIG. 10).
In general terms: A western blot detects proteins with antibodies after separation by electrophoresis.

The next assay concerns the target T2, INC-N.
T2 construct: Specificity lane in the Western blots; also called INCENP-N (N-term); Inc: 1-58
T2 chain: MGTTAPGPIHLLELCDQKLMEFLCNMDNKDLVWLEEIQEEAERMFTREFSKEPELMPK
Described as above. The protocol:
as §1, §2

Assay [1] deals with T3, Borealin N-terminal domain (20-88) (human, UniProt Q53HL2 20-88, biotinylated on the Avi-tag (co-expression with BirA)).
T3 construct: range 20-88; The construct carries His- and Avi-tags; Expressed in E. coli; Immobilised via neutravidin (ELISA) or His-tag/NTA chip (SPR); also called Bor-N
T3 sequence (looked up): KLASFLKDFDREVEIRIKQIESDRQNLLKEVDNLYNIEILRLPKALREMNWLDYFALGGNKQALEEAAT
Described as above. The method, then: as §1, §2

In assay [2] the target is T4, Borealin C-terminal domain (207-280) (human, UniProt Q53HL2 207-280, biotinylated on the Avi-tag (co-expression with BirA)).
T4 construct: range 207-280; The construct carries His- and Avi-tags; Expressed in E. coli; Immobilised via neutravidin (ELISA) or His-tag/NTA chip (SPR); also called Bor-C
T4 sequence (looked up): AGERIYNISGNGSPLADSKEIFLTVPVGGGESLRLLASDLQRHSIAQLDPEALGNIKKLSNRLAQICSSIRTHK
The assay can be described thus: SPR, His-tagged target on NTA chip, 2-fold dilutions of the Fab injected, 1:1 Langmuir fit [panel B, top]. The method, then: (§3) The targets were immobilized onto a nitrilotriacetic acid (NTA) sensor chip via His-tag. 2-fold serial dilutions of the Fab were injected following ligand immobilization on the sensor chip. For each kinetic assay at least five dilutions of the Fab were tested. The data were fitted using 1:1 Langmuir Model to obtain the on-rate, off-rate and the affinity (KD) of the Fab-target interaction.
On the technique in general: SPR reads the build-up and loss of mass on a sensor chip optically.

Assay [3] has as its target T3, Borealin N-terminal domain (20-88). The experiment in a line: single-point Fab ELISA, 50 nM biotinylated target on neutravidin, 200 nM Fab, protein L-HRP [panel A]. The protocol:
(§4) To rapidly reconfirm the binding and specificity of the obtained Fabs after reformatting into the expression vectors single-point Fab ELISA was performed (FIG. 2). Briefly, 50 nM Avi-tagged targets were immobilized on the prepared NAV-coated and blocked with 0.5% BSA in PBS 96-well ELISA plates. The target coated plates were washed with appropriate buffer (TBST or PBST) and were incubated with 200 nM Fab for 20 minutes and then washed. The washed plates were incubated with protein L conjugated with HRP (1:5000 diluted in TBST) for 30 minutes. Plates were washed and the reaction was developed using the TMB chromogenic substrate (Thermofisher) and subsequently quenched with 1M HCl. Absorbance was read at 450 nm on Epoch plate reader.
(In general: In an ELISA, binding on a coated surface is turned into a signal by an enzyme label.)

Assay [4] has as its target T4, Borealin C-terminal domain (207-280). The assay can be described thus: SPR, His-tagged target on NTA chip, 2-fold dilutions of the Fab injected, 1:1 Langmuir fit [panel B, middle]. The method, then: as §3
Assay [5] shares this target. The experiment in a line: single-point Fab ELISA, 50 nM biotinylated target on neutravidin, protein L-HRP [panel B]. The protocol:
as §4

The target of assay [6] is T3, Borealin N-terminal domain (20-88). The assay can be described thus: SPR, His-tagged target on NTA chip, 2-fold dilutions of the Fab injected, 1:1 Langmuir fit [panel A]. The method, then: as §3
Assay [7] addresses T4, Borealin C-terminal domain (207-280). The assay can be described thus: Western blot of recombinant CPC domains, Fab as primary reagent, anti-human F(ab')2 IgG-HRP [panel A]. The method, then:
as §1, §2

Assay [8] has the same target. The experiment in a line: SPR, His-tagged target on NTA chip, 2-fold dilutions of the Fab injected, 1:1 Langmuir fit [panel B, bottom]. The protocol:
as §3

Assay [9] has as its target T3, Borealin N-terminal domain (20-88). The assay can be described thus: single-point Fab ELISA, 50 nM biotinylated target on neutravidin, protein L-HRP [panel A]. The protocol:
as §4

T1 sequence (chain, as listed by the source limits assumed): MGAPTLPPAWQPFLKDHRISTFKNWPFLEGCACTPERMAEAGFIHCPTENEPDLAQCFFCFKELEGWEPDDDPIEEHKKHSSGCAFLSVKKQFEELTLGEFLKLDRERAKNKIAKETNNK

B1: BOR-C-56 (Fab, V domains shown)
VH: EVQLVESGGGLVQPGGSLRLSCAASGFNISSSSIHWVRQAPGKGLEWVAYISSYSGSTYYADSVKGRFTISADTSKNTAYLQMNSLRAEDTAVYYCARYYHSPLWYYSYSGMDYWGQGTLVTVSS
VL: DIQMTQSPSSLSASVGDRVTITCRASQSVSSAVAWYQQKPGKAPKLLIYSASSLYSGVPSRFSGSRSGTDFTLTISSLQPEDFATYYCQQDYSWSPITFGQGTKVEIKR
notes: also called BOR-C-56 Fab
A word on the Kd: it is the free concentration of one partner at which half of the binding sites on the other are occupied at equilibrium, for simple one-to-one binding. Read a low Kd as tighter binding. In the case of B1, the binding result (with Sur-N; with INC-N; in assay [1]) was “no binding (tested: 5-10 ug/ml (the text prints 'lg/ml'))” in each case. Further, in [2], binding was characterised by a dissociation constant (Kd) of 11.6 nM.

B2: BOR-N-51 (Fab, V domains shown)
VH: EVQLVESGGGLVQPGGSLRLSCAASGFNVYSYSIHWVRQAPGKGLEWVASIYSSYSYTSYADSVKGRFTISADTSKNTAYLQMNSLRAEDTAVYYCARKYHFKPTYWGAMDYWGQGTLVTVSS
VL: B1 VL with D91S, Y92S, S93L, W94Y, S95Y, I97L
notes: also called BOR-N-51 Fab
Regarding B2, the binding result in assay [3] is on record as “binds”.

B3: BOR-C-61 (Fab, V domains shown)
VH: EVQLVESGGGLVQPGGSLRLSCAASGFNFYSSYIHWVRQAPGKGLEWVASISSSSGSTSYADSVKGRFTISADTSKNTAYLQMNSLRAEDTAVYYCARRSGGGLDYWGQGTLVTVSS
VL: DIQMTQSPSSLSASVGDRVTITCRASQSVSSAVAWYQQKPGKAPKLLIYSASSLYSGVPSRFSGSRSGTDFTLTISSLQPEDFATYYCQQSSSSLITFGQGTKVEIKR
notes: also called BOR-C-61 Fab
In turn, B3 showed a Kd in [4] of 8.5 nM.

B4: BOR-N-49 (Fab, V domains shown)
VH: EVQLVESGGGLVQPGGSLRLSCAASGFNVSSYSIHWVRQAPGKGLEWVASIYSSSSSTYYADSVKGRFTISADTSKNTAYLQMNSLRAEDTAVYYCARRYYHYRYPLFWGWYGMDYWGQGTLVTVSS
VL: B3 VL with S92F, S93W, S94W, L95P
notes: also called BOR-N-49 Fab
B4: the binding result in assay [3] is “binds”.

B5: BOR-C-58 (Fab, V domains shown)
VH: EVQLVESGGGLVQPGGSLRLSCAASGFNVSSYSIHWVRQAPGKGLEWVASISPYYGYTSYADSVKGRFTISADTSKNTAYLQMNSLRAEDTAVYYCARHYYYGFSWFSSGYAMDYWGQGTLVTVSS
VL: B3 VL with S91G, L95P
notes: also called BOR-C-58 Fab
Consider B5, for which the binding result in assay [5] is “no binding (tested: 200 nM)”.

B6: BOR-N-48 (Fab, V domains shown)
VH: EVQLVESGGGLVQPGGSLRLSCAASGFNFSYSSIHWVRQAPGKGLEWVASIYPYSGSTYYADSVKGRFTISADTSKNTAYLQMNSLRAEDTAVYYCARKQVSGWWWYYGFDYWGQGTLVTVSS
VL: B3 VL with S92Y, S93W, S94W, L95P
notes: also called BOR-N-48 Fab
Consider B6, for which the Kd in assay [6] is 0.4 nM. Moreover, the binding result in assay [7] was “no binding (tested: 5-10 ug/ml (the text prints 'lg/ml'))”.

B7: BOR-C-64 (Fab, V domains shown)
VH: EVQLVESGGGLVQPGGSLRLSCAASGFNVYYSSIHWVRQAPGKGLEWVASISSYYGSTYYADSVKGRFTISADTSKNTAYLQMNSLRAEDTAVYYCARWKWVAMDYWGQGTLVTVSS
VL: B3 VL with S91D, S92L, S93F, S94M, L95P
notes: also called BOR-C-64 Fab
B7 returned a Kd in assay [8] of 0.6 nM.

B8: BOR-N-50 (Fab, V domains shown)
VH: EVQLVESGGGLVQPGGSLRLSCAASGFNVYSYSIHWVRQAPGKGLEWVASIYSYSGYTYYADSVKGRFTISADTSKNTAYLQMNSLRAEDTAVYYCARSTYPHVYLYFGLDYWGQGTLVTVSS
VL: B3 VL with S92Y, S93Y, S94W, L95P, I96V
notes: also called BOR-N-50 Fab
As to B8, the binding result in assay [3] is “binds”.

B9: BOR-N-65 (Fab, V domains shown)
VH: EVQLVESGGGLVQPGGSLRLSCAASGFNFSSSSIHWVRQAPGKGLEWVASISSSSGSTSYADSVKGRFTISADTSKNTAYLQMNSLRAEDTAVYYCARESSQTKKYWYWVVQWYTAMDYWGQGTLVTVSS
VL: B3 VL with S91Y, S93Q, S94W
notes: also called BOR-N-65 Fab
As to B9, in assay [9], the binding result is “no binding (tested: 200 nM)”.

The values above are taken from patent publication US20250127814A1 (UNIVERSITY OF CHICAGO, published 2025).
